4 molecules from paper PMC9973270, “RdmA Is a Key Regulator in Autoinduction of DSF Quorum Quenching in Pseudomonas nitroreducens HS-18” (mBio, 2022) can be followed below.

The target of one data set is T1, RdmA (Pseudomonas nitroreducens, UniProt A0ABS0KS77).
T1 construct: gene I5I61_25840; full length, 206 residues; N-terminal His6 tag, vector pET32a, expressed in E. coli BL21(DE3); dimer proposed
T1 sequence (A0ABS0KS77 1-206): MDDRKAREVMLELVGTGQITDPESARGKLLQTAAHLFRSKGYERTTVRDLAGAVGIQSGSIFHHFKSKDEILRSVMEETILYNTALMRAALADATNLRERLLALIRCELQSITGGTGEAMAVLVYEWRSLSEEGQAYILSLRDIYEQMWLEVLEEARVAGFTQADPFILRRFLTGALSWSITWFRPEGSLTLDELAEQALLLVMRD
The data set is described as follows: EMSA, inhibition of RdmA binding to biotin-labelled dmgA promoter. The note with it: RdmA 2 uM preincubated with DSF 30 min at 30 C before promoter fragment F1 (30 min, 22 C); solvent methanol.

For data set [1], the system named is T2, RdmA (Pseudomonas nitroreducens HS-18), ORF:ff03b8a4.
T2 sequence: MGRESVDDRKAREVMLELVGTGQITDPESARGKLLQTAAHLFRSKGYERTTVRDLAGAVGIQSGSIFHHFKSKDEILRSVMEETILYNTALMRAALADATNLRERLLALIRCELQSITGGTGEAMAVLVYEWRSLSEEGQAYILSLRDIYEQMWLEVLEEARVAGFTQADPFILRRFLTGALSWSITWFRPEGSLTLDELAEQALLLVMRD
The data set is described as follows: EMSA. The note with it: LightShift chemiluminescent EMSA kit (buffer per manufacturer; pH and salt not stated), 10 uL, 2 nM biotin-DNA (20 fmol; Fig 5 legend says 10 nM), 0-4 uM RdmA ….

As for `CC(C)CCCCCCC/C=C\C(=O)O` [DSF, cis-11-methyl-2-dodecenoic acid], the “concentration giving complete inhibition of DNA binding” value at RdmA is 0.9 mM.
On to “GCTTTCTCTCCCCATGGGTCCCATCTGGCCACCTTGCTCAGGGCAATTCATCGAATCGCCCCGCAAGTGCTTGTGTTGTCTGACGAAATGTAAGCCCGCGAGTGCCAACCA (double strand) [PdmgA F4]”, for which, in data set [1], the binding entry is listed as “no binding”.
The same measure, in the same setting: in the case of “GCTTTCTCTCCCCATGGGTCCCATCTGGCCACCTTGCTCAGGGCAATTCATCGAATCGCCCCGCAAGTGCTTGTGTTGTCTGACGAAATGTAAGCCCGCGAGTGCCAACCAAGCAAGCGCTTGG (double strand) [PdmgA F3]” it was “binds more weakly”; in that of “GCTTTCTCTCCCCATGGGTCCCATCTGGCCACCTTGCTCAGGGCAATTCATCGAATCGCCCCGCAAGTGCTTGTGTTGTCTGACGAAATGTAAGCCCGCGAGTGCCAACCAAGCAAGCGCTTGGCCATCCAATGGTTGGGGTAGTCATCGACTCGGGGCTTTTCAACCAAGCGCTTGCT (double strand) [PdmgA F2]”, “binds more weakly”.
